Reference: the RNAGym collection of RNA variant scans (doi:10.1093/molbev/msab373)

B1: Azoarcus group I ribozyme (parent)
chain: GUGCCUUGCGCCGGGAAACCACGCAAGGGAUGGUGUCAAAUUCGGCGAAACCUAAGCGCCCGCCCGGGCGUAUGGCAACGCCGAGCCAAGCUUCGGCGCCUGCGCCGAUGAAGGUGUAGAGACUAGACGGCACCCACCUAAGGCAAACGCUAUGGUGAAGGCAUAGUCCAGGGAGUGGCGAAAGUCACACAAACCGG

Variants of: B1
Test: reverse-splicing fitness (ratio to wild type); higher = more active; in vitro selection; Mg2+ level not given
How it was run: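 An in vitro group I ribozyme library with randomized positions was T7-transcribed and gel-purified. In triplicate, 10 pmol RNA in EPPS pH 7.5 was reacted with 50 pmoles of a 30-nt RNA substrate for 1 h at 37 °C across several added MgCl2 levels (1–48 mM), then stopped with EDTA. Products were reverse transcribed from a substrate-complementary primer, PCR-amplified and sequenced (HiSeq 4000). Fitness is a variant's read proportion after selection over that before, normalised to wild type.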

Row | Variant | reverse-splicing fitness
1 | GUGCCUUGCGCCGGGAAACCACGCAAGGGAUGGUGUCAAAUUCGGCGAAACCUAAGCGCCCGCCCGGGCGUAUGGCAACGCCGAGCCAAGCUUCGGCGCCUGCGCCGAUGUAGGUGUAGCGACUAGACGGCACCCACCUAAGGCCAACGUUAUGGUGAAGGCAUAGUCUAGGGAGUGGCGAAAGUCACACAAACCGG [A111U A120C A145C C150U C169U] | 0.05
2 | GUGCCUUGCGCCGGGAAACCACGCAAGGGAUGGUGUCAAAUUCGGCGAAACCUAAGCGCCCGCCCGGGCGUAUGGCAACGCCGAGCCAAGCUUCGGCGCCUGCGCCGAUGUAGGUGUAGCGACUAGACGGCACCCACCUAAGGCCAACGCUAUGGUGAAGGCAUAGUCGAGGGAGAGGCGAAAGUCACACAAACCGG [A111U A120C A145C C169G U176A] | 0.023
3 | GUGCCUUGCGCCGGGAAACCACGCAAGGGAUGGUGUCAAAUUCGGCGAAACCUAAGCGCCCGCCCGGGCGUAUGGCAACGCCGAGCCAAGCUUCGGCGCCUGCGCCGAUGUAGGUGUAGCGACUAGACGGCACCCACCUAAGGCCAACGUUAUGGUGAAGGCAUAGUCCAGGGAGCGGCGAAAGUCACACAAACCGG [A111U A120C A145C C150U U176C] | 0.0967
4 | GUGCCUUGCGCCGGGAAACCACGCAAGGGAUGGUGUCAAAUUCGGCGAAACCUAAGCGCCCGCCCGGGCGUAUGGCAACGCCGAGCCAAGCUUCGGCGCCUGCGCCGAUGUAGGUGUAGCGACUAGACGGCACCCACCUAAGGCCAACGUUAUGGUGAAGGCAUAGUCCAGGGAGAGGCGAAAGUCACACAAACCGG [A111U A120C A145C C150U U176A] | 0.0815
5 | GUGCCUUGCGCCGGGAAACCACGCAAGGGAUGGUGUCAAAUUCGGCGAAACCUAAGCGCCCGCCCGGGCGUAUGGCAACGCCGAGCCAAGCUUCGGCGCCUGCGCCGAUGUAGGUGUAGCGACUAGACGGCACCCACCUAAGGCCAACGUUAUGGUGAAGGCAUAGUCCAGGGAGGGGCGAAAGUCACACAAACCGG [A111U A120C A145C C150U U176G] | 0.019
6 | GUGCCUUGCGCCGGGAAACCACGCAAGGGAUGGUGUCAAAUUCGGCGAAACCUAAGCGCCCGCCCGGGCGUAUGGCAACGCCGAGCCAAGCUUCGGCGCCUGCGCCGAUGUAGGUGUAGCGACUAGACGGCACCCACCUAAGGCCAACGUUAUGGUGAAGGCAUAGUCUAGGGAGCGGCGAAAGUCACACAAACCGG [A111U A120C A145C C150U C169U U176C] | 0.0178
7 | GUGCCUUGCGCCGGGAAACCACGCAAGGGAUGGUGUCAAAUUCGGCGAAACCUAAGCGCCCGCCCGGGCGUAUGGCAACGCCGAGCCAAGCUUCGGCGCCUGCGCCGAUGUAGGUGUAGCGACUAGACGGCACCCACCUAAGGCCAACGUUAUGGUGAAGGCAUAGUCUAGGGAGGGGCGAAAGUCACACAAACCGG [A111U A120C A145C C150U C169U U176G] | 0.0056
8 | GUGCCUUGCGCCGGGAAACCACGCAAGGGAUGGUGUCAAAUUCGGCGAAACCUAAGCGCCCGCCCGGGCGUAUGGCAACGCCGAGCCAAGCUUCGGCGCCUGCGCCGAUGUAGGUGUAGCGACUAGACGGCACCCACCUAAGGCCAACGUUAUGGUGAAGGCAUAGUCUAGGGAGAGGCGAAAGUCACACAAACCGG [A111U A120C A145C C150U C169U U176A] | 0.0199
9 | GUGCCUUGCGCCGGGAAACCACGCAAGGGAUGGUGUCAAAUUCGGCGAAACCUAAGCGCCCGCCCGGGCGUAUGGCAACGCCGAGCCAAGCUUCGGCGCCUGCGCCGAUGUAGGUGUAGCGACUAGACGGCACCCACCUAAGGCCAACGUUAUGGUGAAGGCAUAGUCGAGGGAGGGGCGAAAGUCACACAAACCGG [A111U A120C A145C C150U C169G U176G] | 0.00481
10 | GUGCCUUGCGCCGGGAAACCACGCAAGGGAUGGUGUCAAAUUCGGCGAAACCUAAGCGCCCGCCCGGGCGUAUGGCAACGCCGAGCCAAGCUUCGGCGCCUGCGCCGAUGUAGGUGUAGCGACUAGACGGCACCCACCUAAGGCCAACGUUAUGGUGAAGGCAUAGUCGAGGGAGCGGCGAAAGUCACACAAACCGG [A111U A120C A145C C150U C169G U176C] | 0.00958
11 | GUGCCUUGCGCCGGGAAACCACGCAAGGGAUGGUGUCAAAUUCGGCGAAACCUAAGCGCCCGCCCGGGCGUAUGGCAACGCCGAGCCAAGCUUCGGCGCCUGCGCCGAUGUAGGUGUAGCGACUAGACGGCACCCACCUAAGGCCAACGCUAUGGUGAAGGCAUAGUCAAGGGAGCGGCGAAAGUCACACAAACCGG [A111U A120C A145C C169A U176C] | 0.00538
12 | GUGCCUUGCGCCGGGAAACCACGCAAGGGAUGGUGUCAAAUUCGGCGAAACCUAAGCGCCCGCCCGGGCGUAUGGCAACGCCGAGCCAAGCUUCGGCGCCUGCGCCGAUGUAGGUGUAGCGACUAGACGGCACCCACCUAAGGCCAACGCUAUGGUGAAGGCAUAGUCAAGGGAGGGGCGAAAGUCACACAAACCGG [A111U A120C A145C C169A U176G] | 0.00493
13 | GUGCCUUGCGCCGGGAAACCACGCAAGGGAUGGUGUCAAAUUCGGCGAAACCUAAGCGCCCGCCCGGGCGUAUGGCAACGCCGAGCCAAGCUUCGGCGCCUGCGCCGAUGUAGGUGUAGCGACUAGACGGCACCCACCUAAGGCCAACGCUAUGGUGAAGGCAUAGUCAAGGGAGAGGCGAAAGUCACACAAACCGG [A111U A120C A145C C169A U176A] | 0.00934
14 | GUGCCUUGCGCCGGGAAACCACGCAAGGGAUGGUGUCAAAUUCGGCGAAACCUAAGCGCCCGCCCGGGCGUAUGGCAACGCCGAGCCAAGCUUCGGCGCCUGCGCCGAUGUAGGUGUAGCGACUAGACGGCACCCACCUAAGGCCAACGCUAUGGUGAAGGCAUAGUCAAGGGAGUGGCGAAAGUCACACAAACCGG [A111U A120C A145C C169A] | 0.00906
15 | GUGCCUUGCGCCGGGAAACCACGCAAGGGAUGGUGUCAAAUUCGGCGAAACCUAAGCGCCCGCCCGGGCGUAUGGCAACGCCGAGCCAAGCUUCGGCGCCUGCGCCGAUGUAGGUGUAGCGACUAGACGGCACCCACCUAAGGCCAACGCUAUGGUGAAGGCAUAGUCGAGGGAGUGGCGAAAGUCACACAAACCGG [A111U A120C A145C C169G] | 0.00891
